Several values for one entry are separate records, joined by “and”; a condition that tells them apart may be missing. Equal values may be shown once. Read-outs that look alike come from different tables or passages of the source. Ends that are not written are not given here.

What is called IC50 is the concentration that inhibits the measured activity by half. By Hill coefficient is commonly meant a measure of the steepness of the concentration-response curve.

The target of the assay is T1, APC/C^Cdc20 (Saccharomyces cerevisiae, UniProt P16522+P53886).
T1 construct: constructed within full-length Cdc20 by site-directed mutagenesis for analysis in vitro in the APC/C^Cdc20 assay; The APC/C was purified for enzyme assays from 1 mL of TAP-tagged Cdc16 yeast extract (SCSY51); made in house; host or cells: Cdc20: in vitro transcription/translation in rabbit reticulocyte lysate, used unpurified; APC/C: S. cerevisiae strain SCSY51 (Cdc16-TAP) extract, captured on IgG magnetic beads
Briefly: biochemical. The assay is classed as biochemical. As to conditions: for inhibition of APC/C^Cdc20 activity (in words): 220 μM peptide, time course 0-60 minutes, vs buffer only, n = 3; for ubiquitinated Pds1 species at 60 minutes (in words): inhibitor at about 4-times the IC50, S2 Fig C. The protocol: Full-length, radio-labeled protein purifications were preformed as previously described. ^35S-Pds1 was prepared in a 500 μL IVT/T (In Vitro Transcription/Translation) reaction (Promega, USA), which contained 400 μL rabbit reticulocyte lysate, 20 μL of L-^35S-methionine (PerkinElmer, USA), 10 μg of plasmid DNA, and the remaining volume as nuclease-free ddH2O as recommended by the manufacturer. The reaction mixture was incubated for 2 hours at room temperature and gently mixed every 30 minutes. The reaction was added to pre-equilibrated IgG Sepharose beads (GE Healthcare, USA) in Bio-spin disposable chromatography columns (Bio-Rad, USA) for binding for 2 hours at room temperature. To ensure efficient binding, the beads were re-suspended several times every 30 minutes. After binding, the beads were washed with 5 mL wash buffer, containing 200 mM 4-(2-hydroxyethyl)-1-piperazineethanesulfonic acid (HEPES) at pH 8.0, 150 mM NaCl, 10% (v/v) glycerol, and 1 mM dithiothreitol (DTT). The ^35S-Pds1 was cleaved from the beads using TEV (Tobacco Etch Virus) protease in 1x TEV buffer (Invitrogen, USA) for 2 hours at room temperature, and the mixture was re-suspended several times every 30 minutes to promote efficient cleavage. The elution was collected and concentrated by employing an Amicon Ultra filter column (Millipore, Ireland). The concentrated ^35S-Pds1 was collected in a new tube, and stored at -20 °C.
The production of Cdc20 or Cdh1 was prepared by IVT/T reactions, where 16 μL of rabbit reticulocyte lysate, 20 μM L-methionine, 0.4 μg of plasmid DNA, and a volume of nuclease-free ddH2O for a total volume of 20 μL. This freshly synthesized Cdc20 or Cdh1 protein was used directly in all APC/C assays after a 1-hour synthesis reaction at room temperature. The APC/C was purified for enzyme assays from 1 mL of TAP-tagged Cdc16 yeast extract (SCSY51) where extract was mixed with 50 μL 50:50 slurry magnetic beads (Invitrogen, Norway) for 2 hours at 4 °C. After incubation, the beads were washed with 3 mL APC/C wash buffer (200 mM of HEPES, 150 mM of NaCl and 10% (v/v) of glycerol). APC/C bound to IgG magnetic beads was used directly in the enzyme assays.
APC/C assays were performed by adding the reaction contents in following order: 4.3 μL of QAH buffer, 20 μL of rabbit reticulocyte lysate containing Cdc20 or Cdh1 with or without an additional volume of recombinant checkpoint protein(s) or inhibitor peptides, 2.4 μL ubiquitin aldehyde (Boston Biochem, USA), APC/C, 16 μL pre-charged E1/E2/ATP/ubiquitin mix, and 13.3 μL of ^35S-Pds1 with QAH buffer (20 mM HEPES at pH 8.0, 100 mM NaCl, and 1 mM MgCl2). The E1/E2/ATP/ubiquitin mix were pre-charged by mixing 1 μL of E1 (Boston Biochem, USA), 1 μL of E2 (Boston Biochem, USA), 14.4 μL of ATP, 14.4 μL of […] (Boston Biochem, USA), and 17.2 μL of QAH buffer and incubated for 15 minutes at room temperature. Approximately 15 μL of samples were taken out at each time point, and the reaction was stopped by the addition of 2x protein sample buffer (125 mM Tris-HCl pH 6.8, 4% SDS, 20% glycerol, and 0.002% bromophenol blue, with 10% (final v/v) 2-mercaptoethanol added in fresh directly before use).
For inhibitor titration and time-course experiments, recombinant Bub3, Mad2, Mad3, and the Mad3-Bub3 complex were expressed and purified as previously described. […] For inhibition of APC/C the co-factor Cdc20 or Cdh1 was made fresh by IVT/T, and pure recombinant checkpoint proteins or inhibitor peptides were added to the IVT/T mixture and incubated for an additional hour at room temperature. In titrations, a dilution series of the checkpoint protein(s) were made before incubation with the Cdc20 co-factor. SDS-PAGE was performed using stand protocols (BioRad, USA).

[1] abbreviates: MCC subunits, 4-parameter Hill fit, ± sd.
Setting [2] is: MCC subunits, titration, 4-parameter Hill fit, ± sd from three independent titrations, 35S-Pds1 substrate, read-out: IC50.
[3] abbreviates: Mad3-Bub3 complex in the presence of 0.5 μM Mad2, ± sd, three independent titrations, read-out: IC50.

Consider “EV25: C-box containing peptide EV25 (Cdc20 134–158) (EVDEQFTVAADRYIPILQGASQNKV; UniProt P26309 134-158, looked up, fragment)”, for which, where the note is “35S-Pds1 substrate”, the “inhibition of APC/C^Cdc20 activity (in words)” value (“inhibition” below) is on record as “A significant level of APC/C^Cdc20 inhibition was observed only in the presence of the C-box2 peptide”.
On to “MKVLDDWFSRKFSKAVHGNNHGTISLSTLSYIRVHKLVK [Tyc1]”, for which the IC50 was ~50000 nM.
For “DS17: DS17 (Cdc20 197–212) peptide derived from the N-terminal portion of the DQ36 peptide (DMNKRILQYMPEPPKC; UniProt P26309 197-212, looked up, fragment)”, the “inhibition” value (35S-Pds1 substrate) is “no significant inhibition was observed”.
For the molecule “C-box1: C-box containing peptide C-box1 (130–167) (TTSREVDEQFTVAADRYIPILQGASQNKVDPETLHEAL; UniProt P26309 130-167, looked up, fragment)”, under “35S-Pds1 substrate”, the “inhibition” value is “A significant level of APC/C^Cdc20 inhibition was observed only in the presence of the C-box2 peptide”.
Turning to “PL29: PL29 (Cdc20 167–196) that does not contain the KILR-motif (LPPPNASPISHLRAQTKIVFKQNVAEACGL; UniProt P26309 167-196, looked up, fragment)”, the “inhibition” value (35S-Pds1 substrate) is “displayed the ability to inhibit APC/C^Cdc20 activity”.
For the molecule “AV16: C-box containing peptide AV16 (Cdc20 143–158) (ADRYIPILQGASQNKV; UniProt P26309 143-158, looked up, fragment)”, the “inhibition” value (35S-Pds1 substrate) was “A significant level of APC/C^Cdc20 inhibition was observed only in the presence of the C-box2 peptide”.
In the case of “DMNKRILQYMPEPPKCSSLRQKSYIMKKRTHYSYQQ [DQ36]”, the IC50 is ~150000 nM. Besides, the “IC50 weaker than that of PQ65 (times)” value (ratio of IC50 relative to PQ65) is reported as “about 3 times”.

B1: Bub3: pure recombinant MCC component Bub3 (protein, UniProt P26449 1-341, looked up)
Spindle assembly checkpoint …: MQIVQIEQAPKDYISDIKIIPSKSLLLITSWDGSLTVYKFDIQAKNVDLLQSLRYKHPLLCCNFIDNTDLQIYVGTVQGEILKVDLIGSPSFQALTNNEANLGICRICKYGDDKLIAASWDGLIEVIDPRNYGDGVIAVKNLNSNNTKVKNKIFTMDTNSSRLIVGMNNSQVQWFRLPLCEDDNGTIEESGLKYQIRDVALLPKEQEGYACSSIDGRVAVEFFDDQGDDYNSSKRFAFRCHRLNLKDTNLAYPVNSIEFSPRHKFLYTAGSDGIISCWNLQTRKKIKNFAKFNEDSVVKIACSDNILCLATSDDTFKTNAAIDQTIELNASSIYIIFDYEN
On to B1, for which the Hill coefficient under setting [1] was 2.2 ± 0.4 and 2.2. For the same molecule, the IC50 under setting [2] stood at 8700 ± 2400 nM.

B2: Mad3-Bub3 complex: recombinant Mad3-Bub3 complex (protein, UniProt P47074 1-515; P26449 1-341, looked up)
Spindle assembly checkpoint … 1: MKAYAKKRISYMPSSPSQNVINFEEIETQKENILPLKEGRSAAALSKAIHQPLVEINQVKSSFEQRLIDELPALSDPITLYLEYIKWLNNAYPQGGNSKQSGMLTLLERCLSHLKDLERYRNDVRFLKIWFWYIELFTRNSFMESRDIFMYMLRNGIGSELASFYEEFTNLLIQKEKFQYAVKILQLGIKNKARPNKVLEDRLNHLLRELGENNIQLGNEISMDSLESTVLGKTRSEFVNRLELANQNGTSSDVNLTKNNVFVDGEESDVELFETPNRGVYRDGWENFDLKAERNKENNLRISLLEANTNLGELKQHEMLSQKKRPYDEKLPIFRDSIGRSDPVYQMINTKDQKPEKIDCNFKLIYCEDEESKGGRLEFSLEEVLAISRNVYKRVRTNRKHPREANLGQEESANQKEAEAQSKRPKISRKALVSKSLTPSNQGRMFSGEEYINCPMTPKGRSTETSDIISAVKPRQLTPILEMRESNSFSQSKNSEIISDDDKSSSSFISYPPQR
Spindle assembly checkpoint … 2: B1 Spindle assembly checkpoint …
On to B2, for which the “ubiquitinated Pds1 species at 60 minutes (in words)” value is “the Pds1 accumulated in these lower molecular weight species”. Under setting [1], this molecule gave a Hill coefficient of 7.3 ± 2.6. For the setting “MCC subunits, 4-parameter Hill fit, ± sd, listed as Mad3-Bub3”, the Hill coefficient turned out to be 7.3. Moreover, the IC50 under setting [2] stood at 89 ± 4 nM. Also, the Hill coefficient (Mad3-Bub3 complex in the presence of 0.5 μM Mad2, ± sd) is 8.2 ±1.9. Under setting [3], the IC50 came out at 70 ± 3 nM.

B3: Mad2: pure recombinant MCC component Mad2 (protein)
chain: MSQSISLKGSTRTVTEFFEYSINSILYQRGVYPAEDFVTVKKYDLTLLKTHDDELKDYIRKILLQVHRWLLGGKCNQLVLCIVDKDEGEVVERWSFNVQHISGNSNGQDDVVDLNTTQSQIRALIRQITSSVTFLPELTKEGGYTFTVLAYTDADAKVPLEWADSNSKEIPDGEVVQFKTFSTNDHKVGAQVSYKY
With B3, the “ubiquitinated Pds1 species at 60 minutes (in words)” value is “the small amount of Pds1 that is ubiquitinated appears to be fully poly-ubiquitinated”. In addition, the “inhibition” value (35S-Pds1 substrate) is on record as “yields a high level of inhibition”. The Hill coefficient under setting [1] was 2.4 ± 0.3 and 2.4. Also, the concentration for half-maximal inhibition (IC50) under setting [2] is 2300 ± 500 nM.

B4: Mad3-Bub3 complex + 0.5 μM Mad2: Mad3-Bub3 complex in the presence of 0.5 μM Mad2 (protein)
chain 1: B2 Spindle assembly checkpoint … 1
chain 2: B1 Spindle assembly checkpoint …
chain 3: B3 chain
modifications: Mad2 added separately at 0.5 uM
As to B4, under setting [3], the half-maximal inhibitory concentration (IC50) was 70 ± 3 nM.

B5: Mad3: pure recombinant MCC component Mad3 (protein, UniProt P47074 1-515, looked up)
Spindle assembly checkpoint …: B2 Spindle assembly checkpoint … 1
B5: under setting [1], the Hill coefficient is 5.0 ± 0.9 and 5.0. For the same molecule, under setting [2], the half-inhibitory concentration (IC50) stood at 240 ± 10 nM.

The values are drawn from PMC5993284, “Peptide inhibitors of the anaphase promoting-complex that cause sensitivity to microtubule poison” (PLoS ONE, 2018).
